Experimental data from patent US20140234336A1.

Assays:
Experiment in all cases: cell-based or functional assay
[1] = biological target: HA of H3N2 influenza virus A/Hong Kong/68 (influenza A virus H3N2 A/Hong Kong/68)
[2] = biological target: HA of H3N2 influenza virus A/Panama/2007/99 (influenza A virus H3N2 A/Panama/2007/99)
[3] = biological target: HA of H3N2 influenza virus A/Nanchang/933/95 (influenza A virus H3N2 A/Nanchang/933/95)
[4] = biological target: HA of H9N2 influenza virus A/Green-winged teal/209/TX/2009 (influenza A virus H9N2 A/Green-winged teal/209/TX/2009)
[5] = biological target: HA of H3N2 influenza virus A/Johannesburg/33/94 R-H3 (influenza A virus H3N2 A/Johannesburg/33/94 R-H3)
[6] = biological target: HA of H3N2 influenza virus A/Beijing/32/92-R-H3 (influenza A virus H3N2 A/Beijing/32/92-R-H3)
[7] = biological target: HA of H3N2 influenza virus A/Brisbane/10/07 (influenza A virus H3N2 A/Brisbane/10/07)
[8] = biological target: HA of H3N2 influenza virus A/Sydney/5/97 (influenza A virus H3N2 A/Sydney/5/97)
[9] = biological target: HA of H3N2 influenza virus A/Beijing/353/89-X109 (influenza A virus H3N2 A/Beijing/353/89-X109)
[10] = biological target: HA of H3N2 influenza virus A/Wisconsin/67/05 (influenza A virus H3N2 A/Wisconsin/67/05)
[11] = biological target: HA of H1N1 influenza virus A/OH/07/2009 (influenza A virus H1N1 A/OH/07/2009)
[12] = biological target: HA of H2N2 influenza virus A/Ann Arbor/6/60, CA (influenza A virus H2N2 A/Ann Arbor/6/60, CA)

Substance: CT149 antibody
- MN assay: lowest antibody concentration at which no virus antigen was detected [1]: 2.5 µg/mL
- MN titer [2]: 0.312 µg/mL
- MN titer [3]: 0.625 µg/mL
- MN titer [4]: 0.156 µg/mL
- MN titer [5]: 0.625 µg/mL
- MN titer [6]: 0.078 µg/mL
- MN assay: lowest antibody concentration at which no virus antigen was detected [7]: 1.25 µg/mL
- MN titer [7]: 0.625 µg/mL
- MN titer [8]: 0.625 µg/mL
- MN titer [9]: 0.156 µg/mL
- MN assay: lowest antibody concentration at which no virus antigen was detected [10]: 1.25 µg/mL
- MN titer [11]: 10 µg/mL
- MN titer [12]: > 20 µg/mL
